Experimental data as given in article PMC11413682.

B1: SARS-CoV-2 ORF10 N5 peptide [SARS-CoV-2] / CUL2^ZYG11B (residues 490–728) [human] (parent)
chain 1: GYINV
chain 2: ELFIVRQLLQIVKQKTNQNSVDTTLKFTLSALWNLTDESPTTCRHFIENQGLELFMRVLESFPTESSIQQKVLGLLNNIAEVQELHSELMWKDFIDHISSLLHSVEVEVSYFAAGIIAHLISRGEQAWTLSRSQRNSLLDDLHSAILKWPTPECEMVAYRSFNPFFPLLGCFTTPGVQLWAVWAMQHVCSKNPSRYCSMLIEEGGLQHLYNIKDHEHTDPHVQQIAVAILDSLEKHIVR

Variants of: B1
Experiment: ITC
Conditions: with CUL2^ZYG11B (residues 490–728) [human]

Variant | Kd [µM]
chain 1 G1S | 13.2
